Patent publication US20260078148A1

Biological target: CD2
Experiment: flow cytometry on primary human T cells at day 5; CD2 detected with the competing clone RPA-2.10

CD2, sequence (receptor chain, as listed by the source limits assumed, form in doubt): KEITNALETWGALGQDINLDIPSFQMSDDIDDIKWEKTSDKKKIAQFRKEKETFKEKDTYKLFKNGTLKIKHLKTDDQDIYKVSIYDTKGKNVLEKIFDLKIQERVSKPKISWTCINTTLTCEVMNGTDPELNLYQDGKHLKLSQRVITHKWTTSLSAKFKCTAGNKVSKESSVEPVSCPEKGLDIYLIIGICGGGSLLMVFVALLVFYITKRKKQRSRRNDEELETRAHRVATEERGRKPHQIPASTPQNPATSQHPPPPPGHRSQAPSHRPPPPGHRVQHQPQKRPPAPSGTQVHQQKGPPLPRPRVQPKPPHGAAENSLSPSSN

IC50 (read off the curve): 0.08 nM
Substance: CD2 RPA naked (antibody)
